Reference: paper PMC3438196
Where a chain is given by its changes, count along the chain named. In names and notes the source's numbering stands.

Assays:
[1] = target: T1, codon optimized Vif SLQ144-146AAA MAPPIT prey (pMG2-VifoptSLQ), P12504; assay: MAPPIT; settings: chain shown with the change
[2] = target: T1, codon optimized Vif SLQ144-146AAA …; assay: MAPPIT; settings: chain shown with the change; remark: listed apart in the source

B1: Apobec3G-GFP MAPPIT bait (pCEL-Apobec3G-GFP), Q9HC16 Y59N (protein)
chain: MKPHFRNTVERMYRDTFSYNFYNRPILSRRNTVWLCYEVKTKGPSRPPLDAKIFRGQVNSELKYHPEMRFFHWFSKWRKLHRDQEYEVTWYISWSPCTKCTRDMATFLAEDPKVTLTIFVARLYYFWDPDYQEALRSLCQKRDGPRATMKIMNYDEFQHCWSKFVYSQRELFEPWNNLPKYYILLHIMLGEILRHSMDPPTFTFNFNNEPWVRGRHETYLCYEVERMHNDTWVLLNQRRGFLCNQAPHKHGFLEGRHAELCFLDVIPFWKLDLDQDYRVTCFTSWSPCFSCAQEMAKFISKNKHVSLCIFTARIYDDQGRCQEGLRTLAEAGAKISIMTYSEFKHCWDTFVDHQGCPFQPWDGLDEHSQDLSGRLRAILQNQEN
percent of parent [1]: 18 % of WT

B2: Apobec3G-GFP MAPPIT bait (pCEL-Apobec3G-GFP), Q9HC16 Y222N (protein)
chain: B1 chain with N59Y, Y222N
percent of parent [1]: 12 % of WT

B3: Apobec3G-GFP MAPPIT bait (pCEL-Apobec3G-GFP), Q9HC16 L27R (protein)
chain: B1 chain with L27R, N59Y
percent of parent [1]: 26 % of WT

B4: Apobec3G-GFP MAPPIT bait (pCEL-Apobec3G-GFP), Q9HC16 V265M (protein)
chain: B1 chain with N59Y, V265M
percent of parent [1]: 92 % of WT

B5: Apobec3G-GFP MAPPIT bait (pCEL-Apobec3G-GFP), Q9HC16 E191V (protein)
chain: B1 chain with N59Y, E191V
percent of parent [1]: 41 % of WT

B6: Apobec3G-GFP MAPPIT bait (pCEL-Apobec3G-GFP), Q9HC16 R30L (protein)
chain: B1 chain with R30L, N59Y
percent of parent [1]: 21 % of WT | percent of parent [2]: 21 % of WT

B7: Apobec3G-GFP MAPPIT bait (pCEL-Apobec3G-GFP), Q9HC16 R136S (protein)
chain: B1 chain with N59Y, R136S
percent of parent [1]: 53 % of WT

B8: Apobec3G-GFP MAPPIT bait (pCEL-Apobec3G-GFP), Q9HC16 H81L (protein)
chain: B1 chain with N59Y, H81L
percent of parent [2]: 53 % of WT

B9: Apobec3G-GFP MAPPIT bait (pCEL-Apobec3G-GFP), Q9HC16 F157I (protein)
chain: B1 chain with N59Y, F157I
percent of parent [1]: 39 % of WT

B10: Apobec3G-GFP MAPPIT bait (pCEL-Apobec3G-GFP), Q9HC16 R78W (protein)
chain: B1 chain with N59Y, R78W
percent of parent [2]: 16 % of WT

B11: Apobec3G-GFP MAPPIT bait (pCEL-Apobec3G-GFP), Q9HC16 D130Y (protein)
chain: B1 chain with N59Y, D130Y
percent of parent [1]: 43 % of WT

B12: Apobec3G-GFP MAPPIT bait (pCEL-Apobec3G-GFP), Q9HC16 W94R (protein)
chain: B1 chain with N59Y, W94R
percent of parent [1]: 27 % of WT

B13: Apobec3G-GFP MAPPIT bait (pCEL-Apobec3G-GFP), Q9HC16 R102G (protein)
chain: B1 chain with N59Y, R102G
percent of parent [1]: 44 % of WT | percent of parent [2]: 44 % of WT

B14: Apobec3G-GFP MAPPIT bait (pCEL-Apobec3G-GFP), Q9HC16 R24G (protein)
chain: B1 chain with R24G, N59Y
percent of parent [1]: 32 % of WT

B15: Apobec3G-GFP MAPPIT bait (pCEL-Apobec3G-GFP), Q9HC16 K270E (protein)
chain: B1 chain with N59Y, K270E
percent of parent [1]: 58 % of WT

B16: Apobec3G-GFP MAPPIT bait (pCEL-Apobec3G-GFP), Q9HC16 W127R (protein)
chain: B1 chain with N59Y, W127R
percent of parent [1]: 16 % of WT

B17: Apobec3G-GFP MAPPIT bait (pCEL-Apobec3G-GFP), Q9HC16 W175R (protein)
chain: B1 chain with N59Y, W175R
percent of parent [1]: 20 % of WT

B18: Apobec3G-GFP MAPPIT bait (pCEL-Apobec3G-GFP), Q9HC16 R238C (protein)
chain: B1 chain with N59Y, R238C
percent of parent [1]: 55 % of WT

B19: Apobec3G-GFP MAPPIT bait (pCEL-Apobec3G-GFP), Q9HC16 K79M (protein)
chain: B1 chain with N59Y, K79M
percent of parent [2]: 56 % of WT

B20: Apobec3G-GFP MAPPIT bait (pCEL-Apobec3G-GFP), Q9HC16 R122C (protein)
chain: B1 chain with N59Y, R122C
percent of parent [1]: 16 % of WT
